Measurements: the DeepSol protein solubility set

Assay: soluble on expression in E. coli; label from the status in PepcDB or PDB records

| Sequence | soluble on expression in E. coli |
| --- | --- |
| MSLAPCGLVPSARQLEWYNREMIAFFHFGINTFEEYVNEGDGKASTAIFNPTALDCRQWMQTLKAAGIPAAILTAKHADGFCLWPSKYTDYSVKNAAWKNGKGDVVREFVDACEEYGLKAGIYLGPHDRHEHLSPLYTTERYKEYYAHQLGELMSDYGKIWETWWDGAGADELTTPVYRHWYKIVREKQPDCVIFGTKNSYPFADVRWMGNEAGEAGDPCWATTDSVAIRDEAQYYKGLNEGMLDGDAYIPAETDVSIRPSWFYHAEEDSRVKSVRELWDIYCTSVGRNSVLLLNFPPDRRGLIHSTDSLHAALLKQGIDETFSTNLLRGAKVKATNVRGAKYSPEKMLDNEKNTYFAGKDGEVKADIIFTLPKTIEFDCLMIEEVIELGHRTTKWSVEYTVDGKNWITIPEATDKQAIGHKWIVRLAPVKAKQVRLRIQDGKACPAIHTFGVYKQSPVFKEGHHHHHH | soluble |
| MSLAPIRLALIEGLSGPFANAGEAVDRNLRIAIEGVNARGGVRLPDGRHPLALVRFDSKNMVDESLLQLQAASDAGIRFVLQGNSSAAAAALSASIARHNDRAPDARMLFLNYAAVDPALTNEACSFWHFRFDASADMRMHALTEVIRADPSVKQVYLIGQDYTFGRQVAQLARRQLGEKRPDIAIAGEVLHPIGKVKDFAPYVARIAASGADAVITGNWGNDLTLLVKAARDAGLKARFFTFYGNSLGAPGAMGEAGVGRVVAVAEWHPNLGGTGSDAFYKAFRARYPAPVDDYPLLRDQMMIDLLATAIERAGTTEAGAVARALEGASLDTGFHRLTLRAEDHQAIQPLVVMQMARAGTPGAPFDIEGSGYGFRTLKVIPPAQTALPTTCRMARYEGHHHHHH | soluble |
| MSLAPPVRSLHIGTVAGFTADPQHLDRIAIHLPALNLPDSLIFARLSKPWASHASGFCFYPEPGDEVVVGFIDSDPRYPMILGALHNPKNTAPFPPDEKNNRKGLIVSQADQTQALMIDTEEKTLRLMAGDNTLTLTGEGNLTMSTPNALQLQADTLGLQADSNLSIAGKQQVEITSAKINMKEGHHHHHH | soluble |
| MSLAREDYAAQVALLVRVLPYVAKEEIFALKGGTAINLFYRDLPRLSVDIDLTYLPVKDRAESLVEINDAMDRIAAAIEGGITGAKAQRIAGGGGGATRALARLGTAEIKIETSPVTRGVVHDPEQREVSEAVEEEFGYATMNIVSFEDLFGGKLHAALDRQHPRDLYDVKLLYENEGFTDELFRTFLIYVASSPRPPHELLNPNLIDLDQPYAREFEGMTKEAVDLAELIATRDRLIGDIQSRLNDDAKRFLRTLHEGDPDFDAIDRPQGAGLPAVRWKLINVNNPNKNAQAAFTGAVVELLPFCGEGHHHHHH | not soluble |
| MSLARHRGKTEKLYVIPLGGLGEIGKNCMVVQYGDDIIVIDAGLAFPEEEMLGIDIVIPDFTYLLENREKVRGILITHGHEDHIGAVAYLLRNINIPVYATRLTLGLIEGKLAEMGMKLPAESKAVRAGDQVKLGPFTCEFIRVNHSIPDACAIAVTTPVGTILHTGDFKFDQTPIDGEFADYRRLTELGKRGILALLSDSTNAERPGYTPSERSVRPNMERVFREAKGRILMATFASNVHRIQQAIELAAEMGKKVAVVGRSMENTVRIALELGYLNVPEGTMVTVDELRRVPLNQQVILTTGSQGEPMAALSRMAVNDHKAIELYPGDTVLFAATAIPGNEKSVARTVNNLYRRGAEVIYDRSAGVHVSGHASQEEQKLMINLTRPKFFVPIHGEYRMLLKHKQLAEACGIPSENILIGENGTIFEFTRNSAQITGKVTSGQVLVDGLGVGDVGNIVLRDRKQLAQEGILIVVVAVDREEGTIVGGPDMVSRGFVYVRESEGLLDEAKERVKRALADQMQRGLPEWAVLKSSIRDVLSKYLYDKTHRRPMILPIIIEIEGHHHHHH | soluble |
| MSLARLKVKVWGEYACFSRPEFKVERVSYPVPTPSAARGLLEAIFWKPEFRYEVRRIGVLRLGTPFALLRNEVGNRMGAKPFFVEDARQQRTSLVLKDVAYLVEADMVLRPHATDPLPKYLEQFERRLKKGQYHHTPYLGTREFPAYFSPPDGEVPDGGLNLDLGPMLFDLAFVEDPGRPELTFKRPGRGEVQGYALPLFFHARIREGWLEVPAEKYQELYRLEEGHAKGAEGHHHHHH | soluble |
| MSLARPQLTILHCGKLIDGHSKNTKKVVSIIVEKNTIVDIADGYVDPGEGDLAIDLNGYTVLPGLMDMHVHLSGESNPKRYTERFTMDLDDYAYRSIAYAKRTLMAGFTTVRDLGGPINTSLRDAINNNQVVGPRVYSAGKAIATTGGHADPTNGMKFELMGDPGPAEGVVNGIAEARKAVRQRYKNGADLIKITATGGVLSVAKNGENPQFQEDEIRAIVETATDYGMHVAAHAHGAEGMKRAVRAGVRSIEHGTLMDEETMALMKEKGTYYIPTISAGEFVAEKAEIDGYYPDIVRPKAKKIGPQIKKTFQKAYDAGVSIAFGTDSGVSYHGDNAKEFAYMVEAGMSEIEAIISATKTAAELLEISNTLGTIEKDKLADIIAVEGDPIENIVALESVVFVMKNGVIYKNGDNEGHHHHHH | soluble |
| MSLASEILPDEFLELFKDLKKPPKKLHYKGNLSLLKQDKIAIIGSRRMSVYTKNCVFSLASMLKNAHLCVVSGGALGVDITASMAAMPNTIGIFANGLDQIYPRTNEKIIKQIYENALALSEYEDDYLPKNYDFLLRNRLVIALSKAVVVAQADIKSGSMQSAKLALELNKPLYVLPQRLGESTATNLLLKENKAKLICDFKEFVSEFASIDMNQDEFLEFCKKGVSVDEALKIYGQKVYEYELEGKISIEGLFIRVLAEGHHHHHH | soluble |
| MSLASIMFGVFVHALECSRPVGLVQAKLLLWTLTASIMVIILSEEGEVAEQLEFFPVQSPCRGICQSDERGFCRGCFRSRDERFNWNKMSDGEKQEVLRLCRQRLMRKLRANKPASSDEPEQPSLFEGHHHHHH | not soluble |
| MSLASKPSLLFVDDSKVMRLAADKMLGREFRVEVAENGLQAWTMVCHNPSISVVFSDLAMPEMDGFALLKKIRTSEDEGVAGLPVIIVTGAENDDEARAEALRLGGTDFISKPFNSTDLLARARAHANYQNERKEFAKQAMIDPLTRLGNRRYLLHRLRQELALAARQQYRLSVVQLEICQFNQLFVQLGKKRTDMVLLKLAQSLRGVIRKEDSLARSSVAQFTVLLPSAGPNGAKRFVERALKVSERLAFQFRGKVQRLPLTVIIHTPAVHAGLAPRQVQLALEEQLKQARKLGPGTVLSDDADTTLSVDESAPILTIEQALVLLRAGKPRAVVSALPDLERQLAPLLELMKRSASDQEGHHHHHH | not soluble |
| MSLASRQAIGFIAPSLAGEFMTGVMEGILQSLRKHQYDLIAVQGAPQHLINNQLAKQHIKAWIVIIDPTGLNELATNMPAVVISAPNAGERFPLVMPDNNQSARAMVEHLIEHGHSKIAFVGNFNNSDMRDRYTVYCDVLNEHSITPNPAWVVDVGDYTEGRTEHAFYPLIANGLNFSAVVAANDQQAVGVMMALETKGYRVPHDMAVVGFDDATIAQHANPPLTTVRQQPQLLGSIAADTVIELIAGKPVSNAPIYVPTIPIWRQSCGCKDVYTGIKEGHHHHHH | not soluble |
| MSLASTFKFLVTSDNHLGYQERDSRRGDDSFTTFEECLRAARLEHEVDAILLAGDFFHDNKPSLGCLARTSSLLRSYVLGDKPISFTLLSDPKRNFPTHPVPLANFQDPNINVALPIFMIHGNHDDPVGGTSSIDILSTAGLVNYFGHTSSLDDIVVEPVLLKKGDTYIALYGLGNVRDDRLHRCFRMKKLHFVQPKTEPGKDWFKILLFHQNRGVRSGGNMKCGIYETMLAGHGMDLVIWGNEHEQQMEPSPSEGFDIIQPGSTILTSLSEHECNPKKYGVLEVRGGSYRVTGFPLRSIRPVVRRTVELWRDNPGCRTLDAVEDFLRSVVEQMIEEAEEQVSRIPDDVLKFHPNIKFPIMRLAVDFTDPDSTTFPQPNINRFGQQYMDIVVNPSELLRPIKPKQVPRVASSASATGGEAPVVPVPRLNTSDIRTKVAEVFNANARDACSLLSESEVSAAVYAFAEKGERDAIDERICELLSKCQKSVWVSMRREGHHHHHH | soluble |
| MSLATIDSMNKDTTRLSDGPDWTFDLLDVYLAEIDRVAKLYRLDTYPHQIEVITSEQMMDAYSSVGMPINYPHWSFGKKFIETERLYKHGQQGLAYEIVINSNPCIAYLMEENTITMQALVMAHACYGHNSFFKNNYLFRSWTDASSIVDYLIFARKYITECEERYGVDEVERLLDSCHALMNYGVDRYKRPQKISLQEEKARQKSREEYLQSQVNMLWRTLPKREEEKTVAEARRYPSEPQENLLYFMEKNAPLLESWQREILRIVRKVSQYFYPQKQTQVMNEGWATFWHYTILNHLYDEGKVTERFMLEFLHSHTNVVFQPPYNSPWYSGINPYALGFAMFQDIKRICQSPTEEDKYWFPDIAGSDWLETLHFAMRDFKDESFISQFLSPKVMRDFRFFTVLDDDRHNYLEISAIHNEEGYREIRNRLSSQYNLSNLEPNIQIWNVDLRGDRSLTLRYIPHNRAPLDRGRKEVLKHVHRLWGFDVMLEQQNEDGSVELLERCPPRMGNLEGHHHHHH | soluble |
| MSLATIKDIARRAGVIPSTVNRTLKDNPSISKETKAKVRAAMDELGYVPNSAAQMLATGLTHSLGVVLPPLTDRENISQPFYMEIITAINEEASSNSQVVSIATGATLEELVKQVELMHRQKRADGFIILYSETNDPVKDYLLKEKVPSVVVGAAVDNNDKVTYIDNDNKELGQEAVNFLRAKGHQKIGFVTDDLFGQVGQEHYQGYIEATNEFNLETYPELVFSSRVIDSLIESLQSYQLTALIVKDDLIALRFIHWLNNQGIRIPEDYAIISFNNSIFAEIMYPFLTTYDINIKELGKESVQRLLDLLKNPQTKAQKITIPFRLIERESVSMGEGHHHHHH | soluble |
| MSLATISKITVQKKAKQRYNVFIGKPGAERFAFSVDEAILVKYGLRKGLELDENEIKALIEADELKKTHHLALHYLSYRMRTEKEIRDYLKEKDRLDEHIEKTIVSLKAEKLIDDRAFAEAFARSKTAQTLIGPNKIRQQLLQKGVNAEAMAKALSPYQIKWQIDVLTAWLDKQERRAVNRRESNEQLKQKRTHQLLAKGFEYEAIQAALANREANEDNEWEALVYQGEKLLKSYVKKYNGRELTYKLKQALYRKGFALSKIDRFLQTEMEGEEGHHHHHH | soluble |
| MSLATPDRLTIVNQYVDNVLTKAGDHYHGQSPTPLLADGVDPRTGKQMEWIFPDGRHAVLSNFSAQQNLMRVLVGLSNLSGNPSYKQRAEAIVKYHFQHYQDESGLLIWGGHRFVDLKTLQPEGPSEKEMVHELKNAYPYYDLMFSVDKDATARFIRGFWNAHVYDWKIMETSRHGKYGQKIGALWQSPFEQQPPFFATKGLSFLNAGNDLIYSASLLYKYNKEDGALVWAKRLAQQYVLPRDKATGLGVYQFTQALKRDETTDDADTHSKYGDRAQRQFGPEFGPTALEGNMMLKGRTSTIYSENALMQLQLGKDLGAEGKELLTWTTDGLKAFAKYAYNESDNTFRPMLANGKDLSNYVLPRDGYYGKKGTVIKPYPADNSFLLSYARAYTVLPDAELWRVARGIARAQGLGELGSAPGKDVKVDLATKNNDPYALFALLDLYQASKVKDYLSLAEKVGDNIISTRYQNGFFMAEPNRQYADVDTIEPYALLALEAAVRNQPQSVAPFLNGAGFTEGGYRMEDGSTRVSTRDNEIFLLNVGETLKPNNKKEGHHHHHH | soluble |
| MSLATVLVTGATGFIGSHVVEALAPRHDVVGLASSVYPSPRDAVRHVRMTLPHPDLEELVATLRPDVVVHCAGVASVGLSMHSPGVDFQSGPPVVFQLFDAIRKAGLASKVVLLSSAAVYGNPQSLPVGEDAPRAPISPYGWHKGMCEDIAQEFHGTYGIRSAVLRIFSCYGAGLRKQLLWDAAHKLLEGAFVFDGTGDETRDFIHVRDVAAFVTRLVEGWPDGGCVVCNVASGEATRIADLLALLPEAFGLSGVVPVFTGRVRGGDPHHWRADISRARQMGLAPAVSLEEGVREYATWFFAVTGGEGHHHHHH | soluble |
